# Results as given in paper PMC8121789, “Characterization of an engineered live bacterial therapeutic for the treatment of phenylketonuria in a human gut-on-a-chip” (Nature Communications, 2021).
# Substrate: N[C@@H](Cc1ccccc1)C(=O)O
# Assay: Phe consumption by live engineered cells, Michaelis-Menten model
# Type: cell-based, Photorhabdus laumondii
# Conditions: apparent whole-cell pathway value (PheP uptake plus PAL), not purified enzyme; in vitro Phe consumption assays
protein,measurement,value
"phenylalanine ammonia lyase (PAL) (Photorhabdus laumondii subsp. laumondii TTO1) (protein, PAL genes inserted in chromosome of host E. coli Nissle 1917 strain SYN5183 (FNR and Ptac promoters), co-expressed with transporter PheP; live cells) MKAKDVQPTIIINKNGLISLEDIYDIAIKQKKVEISTEITELLTHGREKLEEKLNSGEVIYGINTGFGGNANLVVPFEKIAEHQQNLLTFLSAGTGDYMSKPCIKASQFTMLLSVCKGWSATRPIVAQAIVDHINHDIVPLVPRYGSVGASGDLIPLSYIARALCGIGKVYYMGAEIDAAEAIKRAGLTPLSLKAKEGLALINGTRVMSGISAITVIKLEKLFKASISAIALAVEALLASHEHYDARIQQVKNHPGQNAVASALRNLLAGSTQVNLLSGVKEQANKACRHQEITQLNDTLQEVYSIRCAPQVLGIVPESLATARKILEREVISANDNPLIDPENGDVLHGGNFMGQYVARTMDALKLDIALIANHLHAIVALMMDNRFSRGLPNSLSPTPGMYQGFKGVQLSQTALVAAIRHDCAASGIHTLATEQYNQDIVSLGLHAAQDVLEMEQKLRNIVSMTILVVCQAIHLRGNISEIAPETAKFYHAVREISSPLITDRALDEDIIRIADAIINDQLPLPEIMLEE",Km,200 µM
